# In patent publication US6904369:
# Biological target: Kit, the receptor for SCF (UniProt P10721)
# Test: cell-based or functional assay
# Kit, the receptor for SCF, sequence (P10721 26-976 limits assumed): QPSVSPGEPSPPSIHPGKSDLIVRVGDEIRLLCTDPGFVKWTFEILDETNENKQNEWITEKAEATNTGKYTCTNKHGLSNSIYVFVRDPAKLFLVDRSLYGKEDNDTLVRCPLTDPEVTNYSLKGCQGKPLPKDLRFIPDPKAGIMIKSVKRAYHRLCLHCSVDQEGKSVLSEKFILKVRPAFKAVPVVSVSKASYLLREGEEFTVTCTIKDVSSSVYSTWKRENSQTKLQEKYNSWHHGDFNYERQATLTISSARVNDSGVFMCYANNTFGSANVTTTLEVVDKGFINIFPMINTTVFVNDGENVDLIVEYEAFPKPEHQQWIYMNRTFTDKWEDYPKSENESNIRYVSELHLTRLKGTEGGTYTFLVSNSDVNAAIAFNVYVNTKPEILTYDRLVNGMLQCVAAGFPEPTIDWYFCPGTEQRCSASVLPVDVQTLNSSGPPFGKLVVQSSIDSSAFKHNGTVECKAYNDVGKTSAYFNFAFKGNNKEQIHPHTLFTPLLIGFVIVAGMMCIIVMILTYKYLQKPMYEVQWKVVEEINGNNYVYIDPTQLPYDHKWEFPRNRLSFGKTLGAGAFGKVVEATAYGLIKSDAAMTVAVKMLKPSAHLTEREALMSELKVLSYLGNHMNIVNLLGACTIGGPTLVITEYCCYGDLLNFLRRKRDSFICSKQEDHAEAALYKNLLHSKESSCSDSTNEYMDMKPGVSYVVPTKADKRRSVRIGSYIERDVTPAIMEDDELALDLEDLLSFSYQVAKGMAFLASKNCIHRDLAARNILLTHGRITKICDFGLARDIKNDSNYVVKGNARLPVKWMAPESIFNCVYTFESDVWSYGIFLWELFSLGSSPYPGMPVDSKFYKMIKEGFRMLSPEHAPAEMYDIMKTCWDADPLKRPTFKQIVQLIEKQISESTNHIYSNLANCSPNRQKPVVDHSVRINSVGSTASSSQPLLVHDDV
row,Substance,"Biological Activity (Approximate, compared to wild type SCF) (fold lower than wild type SCF)"
1,"SCF(R117A, I118A) (from UniProt P21583 26-166) (ligand)",10
2,"SCF(K78N, N81K) (from UniProt P21583 26-166) (ligand)",3
3,SCF(D25C) (from UniProt P21583 26-166) (ligand),100
4,SCF(K62C) (from UniProt P21583 26-166) (ligand),7
